Data as given in paper PMC8916728.

How the values were obtained:
[1] = molecular target: NRP2 a2b1b2 (human neuropilin 2 residues 145 to 595, monomeric IgG1 Fc tag) (human) (UniProt O60462); assay: BLI
[2] = molecular target: monoFc-tagged NRP2 (human neuropilin 2 a1a2b1b2, residues 23 to 595) (human) (UniProt O60462); assay: BLI
monoFc-tagged NRP2 (human neuropilin 2 a1a2b1b2, residues 23 to 595) (human), sequence (O60462 23-595): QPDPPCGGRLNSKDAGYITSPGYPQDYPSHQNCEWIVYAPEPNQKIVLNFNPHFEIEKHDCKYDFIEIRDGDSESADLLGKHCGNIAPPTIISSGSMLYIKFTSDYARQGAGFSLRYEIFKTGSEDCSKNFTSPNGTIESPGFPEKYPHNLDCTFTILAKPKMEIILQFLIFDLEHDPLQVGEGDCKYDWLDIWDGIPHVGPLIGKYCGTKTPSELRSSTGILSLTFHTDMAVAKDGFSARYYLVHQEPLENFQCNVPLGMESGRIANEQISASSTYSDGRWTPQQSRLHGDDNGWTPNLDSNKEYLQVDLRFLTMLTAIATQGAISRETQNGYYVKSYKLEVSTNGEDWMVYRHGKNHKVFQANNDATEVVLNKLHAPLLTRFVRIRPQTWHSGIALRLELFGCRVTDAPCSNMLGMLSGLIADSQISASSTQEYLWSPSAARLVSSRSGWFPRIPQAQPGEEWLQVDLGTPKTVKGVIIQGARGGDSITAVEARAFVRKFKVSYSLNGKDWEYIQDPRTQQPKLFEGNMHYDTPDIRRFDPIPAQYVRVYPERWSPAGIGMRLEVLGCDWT

NRP2 a2b1b2 (human neuropilin 2 residues 145 to 595, monomeric IgG1 Fc tag) (human), sequence (O60462 145-595): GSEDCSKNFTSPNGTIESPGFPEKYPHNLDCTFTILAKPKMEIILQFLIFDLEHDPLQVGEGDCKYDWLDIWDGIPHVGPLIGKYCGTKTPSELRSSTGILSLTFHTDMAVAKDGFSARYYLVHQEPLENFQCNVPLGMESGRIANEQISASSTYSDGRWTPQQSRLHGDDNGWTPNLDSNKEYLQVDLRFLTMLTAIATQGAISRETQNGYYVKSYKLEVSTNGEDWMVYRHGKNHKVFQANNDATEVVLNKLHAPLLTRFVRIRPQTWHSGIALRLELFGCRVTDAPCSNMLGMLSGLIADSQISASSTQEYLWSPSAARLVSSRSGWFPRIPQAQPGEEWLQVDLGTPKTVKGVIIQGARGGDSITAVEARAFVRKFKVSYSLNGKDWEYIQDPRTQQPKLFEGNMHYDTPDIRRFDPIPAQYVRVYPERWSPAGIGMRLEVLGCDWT

Question: What does the source list for “soluble ectodomain of the HCMV Pentamer (strain Towne) (from UniProt P17176 24-718) (complex)”?
Answer: Kd [1]: 7.9 nM; Kd [2]: 2.2 nM
